Details: Escherichia coli (strain K12), Thermal, CD, NaCl 0.1 M, reversible: yes, whole UniProt chain shown

B1: Ribonuclease HI wild type, P0A7Y4 (protein)
chain: MLKQVEIFTDGSCLGNPGPGGYGAILRYRGREKTFSAGYTRTTNNRMELMAAIVALEALKEHCEVILSTDSQYVRQGITQWIHNWKKRGWKTADKKPVKNVDLWQRLDAALGQHQIKWEWVKGHAGHPENERCDELARAAAMNPTLEDTGYQVEV
Tm (pH 3, glycine-HCl 10 mM): 50 °C
unfolding enthalpy (van 't Hoff) (pH 3, glycine-HCl 10 mM): 107 kcal/mol
Tm (pH 5.5, Sodium acetate 20 mM): 53.1 °C
unfolding enthalpy (van 't Hoff) (pH 5.5, Sodium acetate 20 mM): 83.3 kcal/mol
